According to article PMC3406077 (2012):

B1: wild-type full-length (C24-P237) pallilysin [Treponema pallidum subsp. pallidum (Nichols strain)] / plasminogen-depleted human fibrinogen [human] (parent complex)
chain 1: CFQHGHVPPRRIPPHDTFGALPTAALPSNARDTAAHPSDTADNTSGSSTTTDPRSHGNAPPAPVGGAAQTHTQPPVQTAMRIALWNRATHGEQGALQHLLAGLWIQTEISPNSGDIHPLLFFDREHAEITFSRASVQEIFLVDSAHTHRKTVSFLTRNTAISSIRRRLEVTFESHEVIHVRAVEDVARLKIGSTSMWDGQYTRYHAGPASAPSP
chain 2: ADSGEGDFLAEGGGVRGPRVVERHQSACKDSDWPFCSDEDWNYKCPSGCRMKGLIDEVNQDFTNRINKLKNSLFEYQKNNKDSHSLTTNIMEILRGDFSSANNRDNTYNRVSEDLRSRIEVLKRKVIEKVQHIQLLQKNVRAQLVDMKRLEVDIDIKIRSCRGSCSRALAREVDLKDYEDQQKQLEQVIAKDLLPSRDRQHLPLIKMKPVPDLVPGNFKSQLQKVPPEWKALTDMPQMRMELERPGGNEITRGGSTSYGTGSETESPRNPSSAGSWNSGSSGPGSTGNRNPGSSGTGGTATWKPGSSGPGSTGSWNSGSSGTGSTGNQNPGSPRPGSTGTWNPGSSERGSAGHWTSESSVSGSTGQWHSESGSFRPDSPGSGNARPNNPDWGTFEEVSGNVSPGTRREYHTEKLVTSKGDKELRTGKEKVTSGSTTTTRRSCSKTVTKTVIGPDGHKEVTKEVVTSEDGSDCPEAMDLGTLSGIGTLDGFRHRHPDEAAFFDTASTGKTFPGFFSPMLGEFVSETESRGSESGIFTNTKESSSHHPGIAEFPSRGKSSSYSKQFTSSTSYNRGDSTFESKSYKMADEAGSEADHEGTHSTKRGHAKSRPVRGIHTSPLGKPSLSP
chain 3: QGVNDNEEGFFSARGHRPLDKKREEAPSLRPAPPPISGGGYRARPAKAAATQKKVERKAPDAGGCLHADPDLGVLCPTGCQLQEALLQQERPIRNSVDELNNNVEAVSQTSSSSFQYMYLLKDLWQKRQKQVKDNENVVNEYSSELEKHQLYIDETVNSNIPTNLRVLRSILENLRSKIQKLESDVSAQMEYCRTPCTVSCNIPVVSGKECEEIIRKGGETSEMYLIQPDSSVKPYRVYCDMNTENGGWTVIQNRQDGSVDFGRKWDPYKQGFGNVATNTDGKNYCGLPGEYWLGNDKISQLTRMGPTELLIEMEDWKGDKVKAHYGGFTVQNEANKYQISVNKYRGTAGNALMDGASQLMGENRTMTIHNGMFFSTYDRDNDGWLTSDPRKQCSKEDGGGWWYNRCHAANPNGRYYWGGQYTWDMAKHGTDDGVVWMNWKGSWYSMRKMSMKIRPFFPQQ
chain 4: YVATRDNCCILDERFGSYCPTTCGIADFLSTYQTKVDKDLQSLEDILHQVENKTSEVKQLIKAIQLTYNPDESSKPNMIDAATLKSRKMLEEIMKYEASILTHDSSIRYLQEIYNSNNQKIVNLKEKVAQLEAQCQEPCKDTVQIHDITGKDCQDIANKGAKQSGLYFIKPLKANQQFLVYCEIDGSGNGWTVFQKRLDGSVDFKKNWIQYKEGFGHLSPTGTTEFWLGNEKIHLISTQSAIPYALRVELEDWNGRTSTADYAMFKVGPEADKYRLTYAYFAGGDAGDAFDGFDFGDDPSDKFFTSHNGMQFSTWDNDNDKFEGNCAEQDGSGWWMNKCHAGHLNGVYYQGGTYSKASTPNGYDNGIIWATWKTRWYSMKKTTMKIIPFNRLTIGEGQQHHLGGAKQAGDV

Variants of: B1
Assay: ELISA; 20 µg protein per well; fibrinogen 0.5 µg per well; parent: 3.2; read off a plot

Compared with chain 1 CFQHGHVPPRRIPPHDTFGALPTAALPSNARDTAAHPSDTADNTSGSSTTTDPRSHGNAPPAPVGGAAQTHTQPPVQTAMRIALWNRATHGEQGALQHLLAGLWIQTEISPNSGDIHPLLFFDREHAEITFSRASVQEIFLVDSAHTHRKTVSFLTRNTAISSIRRRLEVTFESHEVIAVRAVEDVARLKIGSTSMWDGQYTRYHAGPASAPSP [chain 1 H179A], chain 1 CFQHGHVPPRRIPPHDTFGALPTAALPSNARDTAAHPSDTADNTSGSSTTTDPRSHGNAPPAPVGGAAQTHTQPPVQTAMRIALWNRATHGEQGALQHLLAGLWIQTEISPNSGDIHPLLFFDREHAEITFSRASVQEIFLVDSAHTHRKTVSFLTRNTAISSIRRRLEVTFESAEVIHVRAVEDVARLKIGSTSMWDGQYTRYHAGPASAPSP [chain 1 H175A] is higher in response: ~3.1 O.D. (492 nm) for the first, ~3.5 O.D. (492 nm) for the second.

For chain 1 CFQHGHVPPRRIPPHDTFGALPTAALPSNARDTAAHPSDTADNTSGSSTTTDPRSHGNAPPAPVGGAAQTHTQPPVQTAMRIALWNRATHGEQGALQHLLAGLWIQTEISPNSGDIHPLLFFDREHAEITFSRASVQEIFLVDSAHTHRKTVSFLTRNTAISSIRRRLEVTFESHAVIHVRAVEDVARLKIGSTSMWDGQYTRYHAGPASAPSP [chain 1 E176A], the response was ~3.5 O.D. (492 nm).
